Measurements: US20210046181A1 (VALITOR, published 2021)

Legend:
[1] = target: IL-1β; assay: BLI (ForteBio Octet Red), target adsorbed on the probe
[2] = target: T1, mouse TNFα (mouse, UniProt P06804 80-235); assay: cell-based or functional assay
T1 sequence (looked up): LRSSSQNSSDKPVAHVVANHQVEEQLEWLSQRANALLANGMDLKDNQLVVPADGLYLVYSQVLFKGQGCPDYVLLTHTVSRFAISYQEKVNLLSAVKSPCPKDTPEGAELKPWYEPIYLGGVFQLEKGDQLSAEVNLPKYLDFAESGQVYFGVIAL

[3] = target: T1, mouse TNFα; assay: BLI (ForteBio Octet Red), target adsorbed on the probe

Chain of IL-1β (P01584 117-269): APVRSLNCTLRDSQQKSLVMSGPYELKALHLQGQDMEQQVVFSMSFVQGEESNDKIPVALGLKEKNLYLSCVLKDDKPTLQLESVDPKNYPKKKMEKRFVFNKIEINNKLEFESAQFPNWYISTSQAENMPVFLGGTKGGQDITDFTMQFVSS

B1: (anti-IL-1β scFv antibody-EMCH)15-HyA (2000 kDa) (scFv)
scFv: SNAEIVMTQSPSTLSASVGDRVIITCQASQSIDNWLSWYQQKPGKAPKLLIYRASTLASGVPSRFSGSGSGAEFTLTISSLQPDDFATYYCQNTGGGVSIAFGQGTKLTVLGGGGGSGGGGSGGGGSGGGGSEVQLVESGGGLVQPGGSLRLSCTASGFSLSSAAMAWVRQAPGKGLEWVGIIYDSASTYYASWAKGRFTISRDTSKNTVYLQMNSLRAEDTAVYYCARERAIFSGDFVLWGQGTLVTVSSSPSTPPTPSPSTPPGGC
modifications: engineered cysteine thiol linked through EMCH (maleimide) to hyaluronic acid (HyA, 2000 kDa)
- Kd [1]: 0.84 nM

B2: (anti-IL-1β scFv antibody-EMCH)-CMC (700 kDa) (scFv)
scFv: B1 scFv
modifications: engineered cysteine thiol linked through EMCH (maleimide) to carboxymethyl cellulose (CMC, 700 kDa)
- Kd [1]: 0.02 nM

B3: (anti-(mouse)TNFα VHH antibody-EMCH)273-HyA (2000 kDa) (VHH)
VHH: QVQLQDSGGGLVQAGGSLRLSCAASGGTFSSIIMAWFRQAPGKEREFVGAVSWSGGTTVYADSVLGRFEISRDSARKSVYLQMNSLKPEDTAVYYCAARPYQKYNWASASYNVWGQGTQVTVSS
modifications: engineered cysteine thiol linked through EMCH (maleimide) to hyaluronic acid (HyA, 2000 kDa)
notes: Multivalent peptide-polymer conjugate: about 273 VHH per HyA chain
- IC50 (nM), Bioactivity Data; assay not given, the filing describes IC50 from the L929 fibroblast cell survival assay with TNFα [2]: 120 nM
- Kd [3]: 0.17 nM
